Experiment [1] has as its target T1, hPD-1 mIg fusion protein (human; mouse, UniProt Q15116 25-170).
T1 construct: extracellular domain; not shown: CH2-CH3 domain of mouse IgG2a heavy chain (plasmid pmIgG)
Put plainly: SPR Biacore T200, hPD-1 mIg immobilised at low level, antibody as analyte; reference pembrolizumab and nivolumab. How it is done: Antibody binding affinity and kinetics: The affinity and kinetics of theTY101 was analyzed using the Biacore T200 instrument (GE Healthcare Life Sciences) and compared with two commercial antibodies.
In general terms: SPR reads the build-up and loss of mass on a sensor chip optically.

Experiment [2] addresses T2, human PD-1 on cells (human, UniProt Q15116 25-288). Put plainly: cell-based or functional assay.
For experiment [3], the target named is T1, hPD-1 mIg fusion protein. Put plainly: SPR Biacore T100, hPD-1mIg immobilised by amine coupling, antibody as analyte. How it is done:
Binding affinity and kinetics determination of the humanized antibodies: The binding affinity and kinetics of the humanized PD-1 mAbs interact with hPD-1 protein was assessed with Biacore T100 (GE Healthcare Life Sciences). […] Nine different concentrations were tested for each sample. Detailed binding kinetic parameters (association rate, Ka, dissociation rate, Kd, and affinity constant, KD) can be determined by full kinetic analysis.

Experiment [4] deals with T3, cynomolgus monkey PD-1 on cells (cynomolgus monkey, UniProt B0LAJ3 25-288).
T3 construct: also called cPD-1; CHOK1-cPD-1
As to the kind of experiment: flow cytometry on CHOK1-cPD-1 cells. In general terms: A flow cytometer gives signals particle by particle.

The target in experiment [5] is T2, human PD-1 on cells. As to the kind of experiment: cell based RBA (flow cytometry): blocking of Biotin-hPD-L2 binding to CHOK1-hPD-1 cells. The procedure:
(§1) The cells were then incubated with Alexa 488 labeled Streptavidin and analyzed using a FACSCanto II.

Experiment [6] deals with T4, mPD-1 protein (ELISA coat) (mouse, UniProt Q02242 25-167, limits assumed).
T4 sequence (looked up): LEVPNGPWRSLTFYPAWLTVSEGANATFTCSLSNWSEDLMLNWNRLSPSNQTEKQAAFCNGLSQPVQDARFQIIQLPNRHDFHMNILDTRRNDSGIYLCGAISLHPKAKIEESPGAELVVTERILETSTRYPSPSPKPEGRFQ
Put plainly: ELISA against mPD-1 ECD-Fc protein (plate coat). The procedure: (§2) The bindings of the antibodies to hPD-1 and the cross-reactivity to mPD-1 proteins were tested by ELISA. A serial dilution of test antibodies were added to ELISA plates pre-coated with 1 μg/ml hPD-1 or mPD-1. HRP conjugated goat anti-human IgG or goat anti-mouse IgG antibody was then added, followed by the addition of substrate Tetramethylbenzidine (TMB) and quantification with a SpectraMax Plus 384 Microplate Reader (Molecular Device, LLC., Sunnyvale, Calif.) at 450 nm wavelength.

In experiment [7] the target is T5, Biotin-hPD-1 (human, UniProt Q15116 25-167, limits assumed, biotin label, site not stated). Put plainly: competitive ELISA: competitive Ab 15 µg/ml with Biotin-hPD-1; coating Ab Nivolumab 1 µg/ml. How it is done: (§3) A serial dilution of competing antibodies and Biotin-hPD-1 were added to ELISA plates pre-coated with 1 μg/ml a test antibody. HRP conjugated streptavidin was then added, followed by the addition of substrate TMB and quantification with a SpectraMax Plus 384 Microplate Reader at 450 nm wavelength.
On the technique in general: In an ELISA, binding on a coated surface is turned into a signal by an enzyme label.

The target of experiment [8] is T5, Biotin-hPD-1. Put plainly: competitive ELISA: competitive Ab 15 µg/ml with Biotin-hPD-1; coating Ab TY101-01-09 1 µg/ml. How it is done:
as §3

For experiment [9], the target named is T5, Biotin-hPD-1. As to the kind of experiment: competitive ELISA: competitive Ab 15 µg/ml with Biotin-hPD-1; coating Ab TY101-04-T3-05 1 µg/ml. The procedure: as §3
The target in experiment [10] is T2, human PD-1 on cells. Put plainly: cell based RBA (flow cytometry): blocking of Biotin-hPD-L1 binding to CHOK1-hPD-1 cells. How it is done: as §1
Experiment [11] concerns the target T2, human PD-1 on cells. Put plainly: flow cytometry on CHOK1-hPD-1 cells.
Experiment [12] concerns the target T5, Biotin-hPD-1. As to the kind of experiment: competitive ELISA: competitive Ab 15 µg/ml with Biotin-hPD-1; coating Ab TY101-4G1 1 µg/ml. The procedure: as §3
Experiment [13] deals with T5, Biotin-hPD-1. Put plainly: competitive ELISA: competitive Ab 15 µg/ml with Biotin-hPD-1; coating Ab Pembrolizumab 1 µg/ml. The procedure: as §3
For experiment [14], the target named is hPD-1 protein (ELISA coat) (human, UniProt Q15116 25-167, limits assumed). Put plainly: ELISA against hPD-1 ECD-Fc protein (plate coat). The procedure: as §2
In experiment [15] the target is T6, Human PD-1 ECD protein (human, UniProt Q15116 25-170).
T6 construct: extracellular domain; also called hPD-1; recombinant hPD-1
As to the kind of experiment: SPR, Biacore T200, hPD-1 ECD immobilised at the high level (960 RU), antibody as analyte, 1:1 fit; kd and KD printed as '*', no visible dissociation over 1500 s [lower right]. The procedure:
(§4) Human PD-1 ECD protein was immobilized on CMS sensor chip for different length of time to achieve low immobilization level (at 60 RU) in flow cell 3 and high immobilization level (960 RU) in flow cell 4. […] After signals of both the reference (flow cell 1) and the zero concentrations being subtracted from that of samples, binding kinetics was calculated using Biacore T200 evaluation software version 1.0 and a 1:1 binding model for curve fitting.

The target in experiment [16] is T6, Human PD-1 ECD protein. Put plainly: SPR, Biacore T200, hPD-1 ECD immobilised at the low level (60 RU), antibody as analyte, 1:1 fit [lower left]. How it is done: as §4
In experiment [17] the target is T2, human PD-1 on cells. As to the kind of experiment: flow cytometry on CHO/hPD-1 cells, anti-mIgG-APC. How it is done: CHO/hPD-1 cells were incubated anti-PD-1 mAbs on ice. After incubation, the cells were washed and further incubated with anti-mIgG-APC (eBiosciences). Flow cytometry analysis was performed using a FACSVerse (BD Biosciences). […] These cells were also stained with their respective positive antibodies respectively as positive control.

We go through four molecules from patent US20210261665A1 (TAYU HUAXIA BIOTECH MEDICAL GROUP, published 2021).

T2 sequence (Q15116 25-288): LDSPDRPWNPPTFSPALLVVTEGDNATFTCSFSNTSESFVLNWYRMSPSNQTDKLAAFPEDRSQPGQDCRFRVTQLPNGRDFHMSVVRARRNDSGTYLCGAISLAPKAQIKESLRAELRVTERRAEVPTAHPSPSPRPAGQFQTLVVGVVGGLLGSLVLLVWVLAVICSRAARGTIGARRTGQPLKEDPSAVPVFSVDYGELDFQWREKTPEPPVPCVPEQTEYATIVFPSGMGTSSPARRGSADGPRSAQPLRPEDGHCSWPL
T5 sequence (Q15116 25-167 limits assumed): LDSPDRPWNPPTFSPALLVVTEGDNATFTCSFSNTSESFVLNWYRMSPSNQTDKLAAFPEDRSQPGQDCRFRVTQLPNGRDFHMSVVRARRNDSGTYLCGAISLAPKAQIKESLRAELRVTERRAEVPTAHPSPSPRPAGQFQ
Sequence of hPD-1 protein (ELISA coat) (Q15116 25-167 limits assumed): as above
T1 sequence (Q15116 25-170): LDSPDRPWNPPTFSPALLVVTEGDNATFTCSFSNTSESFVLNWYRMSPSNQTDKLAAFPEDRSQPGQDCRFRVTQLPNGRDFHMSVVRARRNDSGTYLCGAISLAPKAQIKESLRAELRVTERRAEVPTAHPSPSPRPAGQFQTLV
T6 sequence (Q15116 25-170): as above
T3 sequence (B0LAJ3 entry or part of it limits assumed): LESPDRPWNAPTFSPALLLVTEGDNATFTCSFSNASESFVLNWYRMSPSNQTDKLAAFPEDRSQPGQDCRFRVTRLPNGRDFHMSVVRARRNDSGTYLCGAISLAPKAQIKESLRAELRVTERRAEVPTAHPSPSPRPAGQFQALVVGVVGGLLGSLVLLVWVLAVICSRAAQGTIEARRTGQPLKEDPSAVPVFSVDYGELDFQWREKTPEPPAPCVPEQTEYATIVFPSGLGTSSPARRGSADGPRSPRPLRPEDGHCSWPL

B1: Variant 3 (TY101) (antibody, V domains shown)
VH: EVQLVESGGGLVQPGGSLRLSCAASGFTFSSYTMSWVRQAPGKGLEWVSYISHGGGDTYYADSVKGRFTISRDNSKNTLYLQMNSLRAEDTAVYYCARHSGYERGYYYVMDYWGQGTLVTVSS
VL: DIQLTQSPDSLSVSLGERATINCKASESVDYYGFSFLNWFQQKPGQPPKLLIYAASNRQSGVPDRFSGSGSGTDFTLTISSLQAEDVAVYFCQQSKEVPWTFGQGTKLEIKR
notes: Humanized; VH variant a, VK variant c; Constant regions not spelled out; chimeric parent has human IgG4-S228P and human kappa; also called mutant combination 3
By Kd is commonly meant the concentration at which binding is half-saturated. A word on the koff: it is the rate constant with which the complex falls apart. What is called kon is a measure of how fast the partners come together. On to B1, for which, in the experiment with hPD-1 mIg fusion protein [1], the “fold slower dissociation rate Kd than the two commercial antibodies” value was determined as 10 fold. Besides, the “EC50; luciferase RLU of Jurkat-PD1 cells stimulated with CHO-PD-L1 cells (PD-1/PD-L1 Blockade Bioassay)” value in the experiment with human PD-1 on cells [2] came out at 0.224 µg/mL. Moreover, in the experiment with hPD-1 mIg fusion protein [3], the Kd was 0.0963 nM, the koff amounted to 2.33e-05 s⁻¹ and the on-rate (kon) was 242000 M⁻¹ s⁻¹.

B2: TY101-01-09 (antibody, V domains shown)
VH: B1 VH
VL: B1 VL
notes: Compared with isotype control hIgG4; also called TY101 clone TY101-01-09
The EC50 is the concentration at which the effect is half-maximal. As usually defined, the IC50 is the concentration at which inhibition is half-maximal. In the case of B2, the values for the EC50 (in experiment [4]; in the experiment with human PD-1 on cells [11]; in experiment [14]) were 1.13 nM, 0.78 nM and 0.13 nM, respectively. The “Max MFI” value is 21100 in experiment [4] and 23200 with human PD-1 on cells [11]. Also, the IC50 in the experiment with human PD-1 on cells [5] stood at 1.76 nM; with human PD-1 on cells [10], 1.15 nM. Moreover, the Inhibition rate with human PD-1 on cells [5] was found to be 95.4%; with human PD-1 on cells [10], 99.5%. For the same molecule, the “Max OD450” value in [6] was found to be 0.71; in experiment [14] it was 3.01. Moreover, in experiment [6], the binding result is on record as “no binding (tested: 100 nM)”. The “Inhibition (%)” value with Biotin-hPD-1 [7] stood at 93%; with Biotin-hPD-1 [8], 94%; with Biotin-hPD-1 [9] it was 94%; with Biotin-hPD-1 [12] it was 95%; with Biotin-hPD-1 [13], 93%.

B3: TY101-04-T3-05 (antibody, V domains shown)
VH: B1 VH
VL: B1 VL
notes: also called TY101 clone TY101-04-T3-05
B3: the EC50 in experiment [4] is 1.19 nM; with human PD-1 on cells [11] it was 0.87 nM; in [14], 0.14 nM. Further, the entries for the “Max MFI” value (in [4]; in the experiment with human PD-1 on cells [11]) were 22100 and 23900, respectively. Besides, the figures for the IC50 with human PD-1 on cells [5] and with human PD-1 on cells [10] were 1.52 nM and 1.3 nM, respectively. Further, the Inhibition rate amounted to 95.3% with human PD-1 on cells [5] and 99.5% in the experiment with human PD-1 on cells [10]. The kon with Human PD-1 ECD protein [15] worked out at 210000 M⁻¹ s⁻¹; with Human PD-1 ECD protein [16] it was 143000 M⁻¹ s⁻¹. The figures for the “Max OD450” value in experiment [6] and in experiment [14] were 0.92 and 3.03, respectively. In experiment [6], the binding result is on record as “no binding (tested: 100 nM)”. The “Inhibition (%)” value in the experiment with Biotin-hPD-1 [7] stood at 94%; with Biotin-hPD-1 [8], 94%; in the experiment with Biotin-hPD-1 [9] it was 95%; with Biotin-hPD-1 [12], 95%; in the experiment with Biotin-hPD-1 [13], 94%. In the experiment with Human PD-1 ECD protein [16], this molecule showed a Kd of 0.132 nM. This molecule came in with an off-rate constant (koff) in the experiment with Human PD-1 ECD protein [16] of 1.89e-05 s⁻¹.

B4: Murine Ab2 (antibody, mouse IgG1, V domains shown)
VH: QVQLQQSGAELARPGASVKMSCKASGYTFTSYTMHWVKQRPGQGLEWIGYINPTTGYTNYNQKFKDKATLTADKSSSTAYMQLSSLTSEDSAVYYCARDDAYYSGYWGQGTTLTVSS
VL: DIQMTQSPASLSVSVGETVTITCRASENIYSNLAWYRQKQGKSPQLLVYAAKNLADGVPSRFSGSGSGTQYSLKINSLQSEDFGSYYCQHFWGTPWTFGGGTKLEIKR
notes: also called anti-hPD-1 mAb 2
B4: in the experiment with human PD-1 on cells [17], the binding result is given as “binds”.
